Experimental data as given in PMC3397996, “Ultramarine, a Chromoprotein Acceptor for Förster Resonance Energy Transfer” (PLoS ONE, 2012).
Values belong to the molecule of their own block, whether it stands above or below them.

Experiments:
HcRed = experiment: SEC; Superdex S200 10/30, 100 µl of 1 mg/ml applied, 20 mM Tris-HCl pH 8.0, 300 mM NaCl, column calibrated with molecular weight standards; self-association
[1] = target: Rtms5^S125R (Montipora efflorescens); experiment: as above
[2] = target: Rtms5^S125R/F162P (Montipora efflorescens); experiment: SEC; gel filtration, data not shown; self-association
[3] = target: Rtms5^S125R/F162P (Montipora efflorescens); experiment: AUC; sedimentation velocity, 20°C, 300 mM NaCl, 20 mM Tris pH 8.0, samples at 0.1 mg/ml and 1.0 mg/ml, 40,000 rpm; self-association
[4] = target: Rtms5^F162R (Montipora efflorescens); experiment: SEC; Superdex S200 10/30, 100 µl of 1 mg/ml applied, 20 mM Tris-HCl pH 8.0, 300 mM NaCl, column calibrated with molecular weight standards; self-association
[5] = target: the molecule itself; experiment: AUC; sedimentation velocity, 20°C, 300 mM NaCl, 20 mM Tris pH 8.0, samples at 0.1 mg/ml and 1.0 mg/ml, 40,000 rpm; self-association

Molecule: HcRed
stoichiometry N (HcRed): 2

Molecule: Rtms5^F162R (natural protein)
stoichiometry N [4]: 2

B1: Rtms5 (natural protein)
chain: MSVIATQMTYKVYMSGTVNGHYFEVEGDGKGRPYEGEQTVKLTVTKGGPLPFAWDILSPQCQYGSIPFTKYPEDIPDYVKQSFPEGFTWERIMNFEDGAVCTVSNDSSIQGNCFTYHVKFSGLNFPPNGPVMQKKTQGWEPHSERLFARGGMLIGNNFMALKLEGGGHYLCEFKTTYKAKKPVKMPGYHYVDRKLDVTNHNKDYTSVEQCEISIARKPVVA
notes: Cloned in pQE9N; also called wildtype Rtms5; source: E. coli BL21-DE3 (pQE9N:Rtms5), purified (Ni-NTA)
stoichiometry N [5]: 4

The remaining lines, values ahead:

stoichiometry N [1]: 2
Molecule: Rtms5^S125R (natural protein)

stoichiometry N [2]: 2
stoichiometry N [3]: 2
Molecule: Rtms5^S125R/F162P (natural protein)
